Data from patent EP4541814A1.

How the values were obtained:
[1] = target: epidermal growth factor receptor (EGFR), Example 4A analyte (UniProt P00533); test: SPR (Biacore 8K+), fusion protein amine-coupled to CM5, EGFR 200 nM, report point late binding
[2] = target: EGFR (SinoBiological, 10001-H08H) (UniProt P00533); test: SPR (Biacore 8K+), fusion protein amine-coupled to CM5, EGFR 200 nM
[3] = target: trastuzumab-GFP (prepared in-house); test: SPR (Biacore 8K+), fusion protein amine-coupled to CM5, Fc block 2 uM, then trastuzumab-GFP 1 uM

Row | Binder | trastuzumab-eGFP response in analyte binding late (1 µM, RU) [3] [RU] | also measured
1 | Candidate 4A-5: vh167 fusion protein (SEQ ID NO:169) (VHH) VHH: QVQLQQSGGGSVQAGGSLRLSCTISGRTFSSYAMGWFRQRPGKEREFVAAINWSSGSTYYADSVKGRFTISRDNAKNTVYLQMNSLKPEDTAVYYCAAGYQINSGNYNFKDYEYDYWGQGTQVTVSS | – | Binding capacity EGFR (200 nM) (RU) [1]: 2350 RU
2 | Candidate 4B-4: vh167 fusion protein (SEQ ID NO:175) (VHH) VHH: QVQLQQSGGGSVQAGGSLRLSCTISGRTFSSYAMGWFRQRPGKEREFVAAINWSSGSTYYADSVKGRFTISRDNAKNTVYLQMNSLKPEDTAVYYCAAGYQINSGNYNFKDYEYDYWGQGTQVTVSS | – | EGFR response in analyte binding late (200 nM, RU) [2]: 1900 RU
3 | Candidate 4B-5: vh60 fusion protein (SEQ ID NO:172) (VHH) VHH: QVQLQESGGGLVQPGGSLRLSCAASGRTSINPYMAWFRQAPGKQREFVAAISSGGVYTYYTDSVKGRFTISRDNAKTTVYLQMNSLKPEDTAVYYCAADFRRGGNWNVDPFRYDYQYWGQGTQVTVSS | 4300 | –
4 | Candidate 4B-6: vh113 fusion protein (SEQ ID NO:173) (VHH) VHH: QVQLQQSGGGSVQAGGSLRLSCTISGRTSINPYMAWFRQRPGKEREFVAAISSGGVYTYYADSVKGRFTISRDNAKNTVYLQMNSLKPEDTAVYYCAADFRRGGNWNVDPFRYDYDYWGQGTQVTVSS | 3910 | –
